Laboratory results taken from article PMC10528418 (Molecular cell, 2023).

T1: TFIIIC subunit τ91 (S. cerevisiae, UniProt Q06339 1-672)
T1 sequence (looked up): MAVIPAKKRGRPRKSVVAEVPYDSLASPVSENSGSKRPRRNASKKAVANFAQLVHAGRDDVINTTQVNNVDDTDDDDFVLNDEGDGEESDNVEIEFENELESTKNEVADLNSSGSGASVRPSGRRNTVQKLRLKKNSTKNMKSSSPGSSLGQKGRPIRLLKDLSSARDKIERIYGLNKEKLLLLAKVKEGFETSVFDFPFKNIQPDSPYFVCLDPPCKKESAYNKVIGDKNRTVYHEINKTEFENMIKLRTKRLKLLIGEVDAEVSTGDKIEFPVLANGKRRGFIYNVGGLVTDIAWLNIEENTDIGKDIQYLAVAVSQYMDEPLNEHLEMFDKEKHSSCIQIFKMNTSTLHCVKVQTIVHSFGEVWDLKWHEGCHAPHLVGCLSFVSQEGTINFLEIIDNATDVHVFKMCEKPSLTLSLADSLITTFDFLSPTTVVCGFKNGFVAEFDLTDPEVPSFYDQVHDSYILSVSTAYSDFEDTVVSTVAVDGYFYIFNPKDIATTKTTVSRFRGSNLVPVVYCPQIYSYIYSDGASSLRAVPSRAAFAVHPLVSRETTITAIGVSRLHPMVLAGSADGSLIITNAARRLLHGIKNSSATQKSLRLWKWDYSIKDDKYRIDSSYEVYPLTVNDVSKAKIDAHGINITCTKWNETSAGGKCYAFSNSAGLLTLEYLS

T2: TFIIIC subunit τ138 (S. cerevisiae, UniProt P34111 1-1160)
T2 sequence (looked up): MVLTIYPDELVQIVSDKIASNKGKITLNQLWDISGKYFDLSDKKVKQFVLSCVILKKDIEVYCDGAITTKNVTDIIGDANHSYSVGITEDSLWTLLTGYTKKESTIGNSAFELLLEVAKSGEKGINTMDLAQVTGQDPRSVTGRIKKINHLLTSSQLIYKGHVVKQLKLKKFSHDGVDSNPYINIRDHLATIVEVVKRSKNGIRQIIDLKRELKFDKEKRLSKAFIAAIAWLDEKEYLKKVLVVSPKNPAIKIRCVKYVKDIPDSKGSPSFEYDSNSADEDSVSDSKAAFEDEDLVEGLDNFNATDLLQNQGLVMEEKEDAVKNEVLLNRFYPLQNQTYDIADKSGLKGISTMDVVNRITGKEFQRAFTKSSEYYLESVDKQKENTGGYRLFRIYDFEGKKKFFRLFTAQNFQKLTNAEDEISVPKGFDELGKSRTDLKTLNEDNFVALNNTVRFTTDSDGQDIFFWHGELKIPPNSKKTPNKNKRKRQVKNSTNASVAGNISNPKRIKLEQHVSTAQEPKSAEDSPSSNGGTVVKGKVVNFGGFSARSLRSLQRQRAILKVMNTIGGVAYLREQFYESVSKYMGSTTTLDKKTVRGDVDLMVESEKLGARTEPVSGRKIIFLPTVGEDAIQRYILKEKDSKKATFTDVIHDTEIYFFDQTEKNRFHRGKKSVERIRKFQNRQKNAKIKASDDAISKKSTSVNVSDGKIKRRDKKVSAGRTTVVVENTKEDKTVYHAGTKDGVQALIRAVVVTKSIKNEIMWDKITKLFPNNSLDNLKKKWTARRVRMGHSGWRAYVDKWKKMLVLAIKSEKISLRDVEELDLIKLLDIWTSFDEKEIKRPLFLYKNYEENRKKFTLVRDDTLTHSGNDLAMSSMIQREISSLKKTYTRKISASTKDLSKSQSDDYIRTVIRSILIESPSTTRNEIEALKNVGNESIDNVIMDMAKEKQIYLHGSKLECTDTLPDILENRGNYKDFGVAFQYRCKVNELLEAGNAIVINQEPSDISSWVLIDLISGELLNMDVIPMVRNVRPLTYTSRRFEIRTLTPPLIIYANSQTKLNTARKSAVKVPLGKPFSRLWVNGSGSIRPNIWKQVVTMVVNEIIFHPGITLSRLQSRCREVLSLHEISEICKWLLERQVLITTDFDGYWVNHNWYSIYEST

T3: TFIIIC subunit τ95 (S. cerevisiae, UniProt P32367 1-649)
T3 sequence (looked up): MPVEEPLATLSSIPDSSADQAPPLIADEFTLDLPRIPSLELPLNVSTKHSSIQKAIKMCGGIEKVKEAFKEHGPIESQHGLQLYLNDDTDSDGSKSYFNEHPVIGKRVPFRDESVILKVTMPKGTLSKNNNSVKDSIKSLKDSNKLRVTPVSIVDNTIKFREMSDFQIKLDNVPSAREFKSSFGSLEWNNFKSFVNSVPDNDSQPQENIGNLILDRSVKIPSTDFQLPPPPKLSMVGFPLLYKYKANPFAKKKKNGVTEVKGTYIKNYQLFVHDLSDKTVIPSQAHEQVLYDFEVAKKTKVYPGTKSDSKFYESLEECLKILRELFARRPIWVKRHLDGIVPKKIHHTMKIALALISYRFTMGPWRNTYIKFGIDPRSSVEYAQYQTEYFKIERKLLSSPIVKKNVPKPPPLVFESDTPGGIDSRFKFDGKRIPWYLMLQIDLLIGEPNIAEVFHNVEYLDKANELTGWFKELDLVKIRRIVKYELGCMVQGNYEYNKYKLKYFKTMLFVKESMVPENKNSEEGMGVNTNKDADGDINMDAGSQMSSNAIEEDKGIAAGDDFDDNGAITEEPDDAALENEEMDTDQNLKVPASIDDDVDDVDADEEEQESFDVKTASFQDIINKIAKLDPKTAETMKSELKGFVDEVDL


Legend:
Test in all cases: cryo-EM structure
TFIIIC subunit τ91 = target: T1, TFIIIC subunit τ91
TFIIIC subunit τ138 = target: T2, TFIIIC subunit τ138
TFIIIC subunit τ95 = target: T3, TFIIIC subunit τ95

| binding result (TFIIIC subunit τ91) | binding result (TFIIIC subunit τ138) | binding result (TFIIIC subunit τ95) | Binder |
| --- | --- | --- | --- |
| binds | binds | – | TFIIIC subunit τ60 (natural protein, S. cerevisiae) MKLLKDLLVDRKEFEDWKNNLTWARDGTLYLTTFPDISIGQPKYAKDINCNSKNLFHVKEFPLEFENKLDFELAQQNGLLNSQPVCYPRVCKPSPIDDWMAVLSNNGNVSVFKDNKMLTNLDSKGNLSSRTYHCFEWNPIESSIVVGNEDGELQFFSIRKNSENTPEFYFESSIRLSDAGSKDWVTHIVWYEDVLVAALSNNSVFSMTVSASSHQPVSRMIQNASRRKITDLKIVDYKVVLTCPGYVHKIDLKNYSISSLKTGSLENFHIIPLNHEKESTILLMSNKTSYKVLLEDELHVTADNIIAPYLEKKFKKWSTIWNEFNNYETTLVIHGISLSPDGYSIAIVYDMERVAFKYKIASEQSFNIMFAPLYHTWTISERAVGLAWYQTYQIYNQSLPKLPENFSMNKKLLNGNYPISLDFQSYLNALMKSEEMRIIMFLNMTIDKPSILSFLEALYEYAINKKSELTNSFDLACVLSIAAILKREAPIYNGTLLMKNSFLEETFNLESFTADPETVTSTTNNTWKRCGVTLLPILTTHVKICPVSKQRVIDIKRDDLNDYGWFTRGLLERFNEISVYCGTTLEVM |
| – | binds | binds | TFIIIC subunit τ55 (natural protein, S. cerevisiae, UniProt Q12415 1-435, looked up) MVVNTIYIARHGYRSNWLPEGPYPDPLTGIDSDVPLAEHGVQQAKELAHYLLSLDNQPEAAFASPFYRCLETVQPIAKLLEIPVYLERGIGEWYRPDRKPVIPVPAGYEILSKFFPGVISQEWDSTLTPNEKGETEQEMYMRFKKFWPLFIERVEKEYPNVECILLVTHAASKIALGMSLLGYDNPRMSLNENGDKIRSGSCSLDKYEILKKSYDTIDETDDQTSFTYIPFSDRKWVLTMNGNTEFLSSGEEMNWNFDCVAEAGSDADIKKRQMTKKTSSPIPEADDQTEVETVYISVDIPSGNYKERTEIAKSAILQYSGLETDAPLFRIGNRLYEGSWERLVGTELAFPNAAHVHKKTAGLLSPTEENETTNAGQSKGSSTANDPNIQIQEEDVGLPDSTNTSRDHTGDKEEVQSEKIYRIKERIVLSNVRPM |
